{"source": "the DeepSol protein solubility set"}
{"assay": "soluble on expression in E. coli; label from the status in PepcDB or PDB records"}
{"sequence": "MSLIPKIKDISVIECQPAGVRLTVVKITTDQDGLYGYGCATFTQRADLVKPAVERYLKPFLMGKTTDRIEDIWQSCYDSSYWKNGPVLNNAISGIDQALWDIKGRQAGLPVYQLAGGKCREAADCYAHADGADFPNVVEAAKRYMAQGFRHVRVQIGVPGMAGYGSSRGDTKVQALHSKPVFEPAYYVRRALKLFEVCRTELGEEIELLHDMHERVSPNQAVQFVKDAEKFKMFFMEDPLSPEDIAYFRQIRQQCATPIAMGELFNSPHEWTPLISERLIDYIRVHVSQAGGFTPARKIAILGETFGVKTAWHGPGDVSPIGHMANVTLDLVSYNFGIQEYSPFNGRTQEIFSGCPVMKDGYLYASEKPGWGIEVDEKLAAKAPFTDREGHHHHHH", "soluble on expression in E. coli": "not soluble"}
{"sequence": "MSLIQEYVPGKQVTLAHIIASPNKEIYTKLGLPEGTSNALGILTITPSEAAIIAVDIATKSGDIQIGFIDRFSGSVVISGDVSSVEAALQAVIEGLQQILNFSVTCKITRTEGGSHHHHHH", "soluble on expression in E. coli": "soluble"}
{"sequence": "MSLISVIMPVYNCEKYLEESIESILKQTYRDFEFIIVNDGSNDKSIDIINKYANDDNRIVVVSRDNNMGMVYSLNEGIDRAKGSYVARMDADDIALPERFERQIEYLNKNKDVDILACKVEAFGDVSREQKLEREHWYNVDLNNSESIESLFLENCYIAHPSVMMKMSVLKALGGYNLNYKRTEDYNLWLRAIAKGYKIAMLEEKLMKIRLHNDSKIHRDAEGFSSIRDIIQSRLEYVKEKLKLKDFSYVIWGASNGGKIAYEKIKEVFPNAKLNGYIDKFKTGKFEGVDIFYPEDLSKMKVDYVFIATLPGCKEAKGILTKNNFVPIKDFLVLCEGHHHHHH", "soluble on expression in E. coli": "soluble"}
{"sequence": "MSLIVLGLEGTAHTISCGIIDESRILAMESSMYRPKTGGIRPLDAAVHHSEVIDTVISRALEKAKISIHDIDLIGFSMGPGLAPSLRVTATAARTISVLTGKPIIGVNHPLGHIEIGRRVTGAIDPVMLYVSGGNTQVIAHVNGRYRVLGETLDIGIGNMIDKFAREAGIPFPGGPEIEKLAMKGTKLLDLPYSVKGMDTAFSGILTAALQYLKTGQAIEDISYSIQETAFAMLVEVLERALYVSGKDEILMAGGVALNRRLRDMVTNMAREAGIRSYLTDREYCMDNGIMIAQAALLMYKSGVRMSVEETAVNPRFRIDEVDAPWITDASRKDYGKAGAESRIEEVSFHGRPAIRKVRISKSYRNSDLDKKIRYERMRNEFTILRKLKEAGVNSPVVYDFDPFSMSITMQKIPGRMMSAELNEGRTDFLNELGIMIAKMHRAGIAHGDLTVNNIIVNDSVFIIDPSMGKVNAEIEDMAVDIYALEDSIKGLGLDSGSVIGQMLKSYRNNFNLADDVLETVSAIRRRHRYVEGHHHHHH", "soluble on expression in E. coli": "not soluble"}
{"sequence": "MSLIYFFMVDAVELSRKYEGKIEIYPKVPITSYNDFALIYTPGVAEVSKAIYKDPDKSFELTSRWNTIAVVTDGTRVLGLGNIGPTAAMPVMEGKSLLFKYLGGVDAIPLPINVKSADEFTNVVKALETSFGGINLEDIESPKCFYILEKLQSMLNIPVWHDDQQGTAAAILAGLINAMILTNKDPKESKVVFYGAGASNIAAARILAKYGFKYENIVMIDSKGPLYADREDVDHLMLHHKWKYELAIKTNKWEAKEIKDAFSGADAVVAASTPGPNVIKKEWISLMNKEAIVFALANPVPEIWPQDAKEAGAKIVATGRSDFPNQVNNSLIFPAIFRGVLDSRAKAITDEMTIAASEALAKYARDRGINENYIIPRMDEWEAFYEEAAAVASKAVELGLARVKKSREEFREIAKERIIRARKIMNLVISTWSPEGHHHHHH", "soluble on expression in E. coli": "not soluble"}
{"sequence": "MSLIYLRKANERGHANHGWLDSWHTFSFANYYDPNFMGFSALRVINDDVIEAGQGFGTHPHKDMEILTYVLEGTVEHQDSMGNKEQVPAGEFQIMSAGTGIRHSEYNPSSTERLHLYQIWIMPEENGITPRYEQRRFDAVQGKQLVLSPDARDGSLKVHQDMELYRWALLKDEQSVHQIAAERRVWIQVVKGNVTINGVKASTSDGLAIWDEQAISIHADSDSEVLLFDLPPVEGGSHHHHHH", "soluble on expression in E. coli": "soluble"}
{"sequence": "MSLKAEFLTPVVTIFDEEGNLDKEGNKKVYDHLIDGGVDGLVIMGSTGEFFNMSMDMQKELIDLVTSHVNKRVKVFIGTSRMCINESIELSNYAHNSGADGVMIISPYYFSLDDDSIELFYSEIAKNTEAEIYLYNYPDRTGYDLSPELTLRLARKHKNIVGYKDTVTLMGHTRDLINTMKIEFPEFKVYSGYDENFIHNLMSGGAGCIGGLSNLIPEVCSKWAEAYNNRDMEKVIEIQKYINKAMDFYLITNPFIPAMKKAMNIRGLQISDYMTAPFVKPNEKQVCEIKKLMNELNIEGHHHHHH", "soluble on expression in E. coli": "soluble"}
{"sequence": "MSLKAIAKLRDHCIVCGYGRIGSVVAKELMEEGVALVVIENDPAMIEALETEGILHLAGDATNDELLQAAGIERARALVAALSLDSANVYVVLSAHQINPSMTIVARASEPSHIGKLKLAGADRVFLPHHLGGLRMAQSILRPTVTSFIELAHTRSDLSIQMEELEIGDDSVLVGKTLIESGIRPQYNLIIIGVKRPDGTMHFNPESTYTLQARDTLIAVGFPENFKQFQEILEGHHHHHH", "soluble on expression in E. coli": "soluble"}
{"sequence": "MSLKAIGFEQPFKLSDGNLFKTFNLDIPEPKVHEILVKIQSISVNPVDTKQRLMDVSKAPRVLGFDAIGVVESVGNEVTMFNQGDIVYYSGSPDQNGSNAEYQLINERLVAKAPKNISAEQAVSLPLTGITAYETLFDVFGISRNRNENEGKTLLIINGAGGVGSIATQIAKAYGLRVITTASRNETIEWTKKMGADIVLNHKESLLNQFKTQGIELVDYVFCTFNTDMYYDDMIQLVKPRGHIATIVAFENDQDLNALKPKSLSFSHEFMFARPLNQTDDMIKHHEYLEDITNKVEQNIYQPTTTKVIEGLTTENIYQAHQILESNTMIGKLVINLNEGHHHHHH", "soluble on expression in E. coli": "soluble"}
{"sequence": "MSLKAIQFDLSIPKYALSKAMGKMNSSLYVESPFSCLQLRDVEKPALPNDHWVEIKVKYGGICGSDLNLIFLNDSPATSPFVSFPFTLGHEMVGTISKARKSVTNLQVGQRVVIDPLLSCEVRGITPVCSECANGNYNLCHHMNDGDIAPGLLTGTCKDTGGSWGRYLVAHQSQVISLPSSVDDDNGVLVEPFACALHAVLQNRPKPSDTVFVIGSGVIGICVIAAIRALEIPCKIVTLAKHPFQAELAKQFGADEIVFLSRKRDYVTAVAESFNANVLHPVFGEPIVHGGADIVYECVGNRKSLHDSLRFARKGGKVVLIGLASFIDNLDMTMIWLNELEVKGSFTYGMEDWQGGKKRTLQIAVDLIADGKVDLSPLITHRFPLEAYREALATAANKKKGQTMKVVFEEGHHHHHH", "soluble on expression in E. coli": "not soluble"}
{"sequence": "MSLKALGLSKSTYYHWKHYQTSRHDKQDTILKSQIFEIWKNNYKAYGYPRITIAMRRLGVVIGPNRVYRLMQELGIRSLMGRRFKKPGTHVDYSQRPNLIKNHPIGTIWRADITYLELRPGTWVYLSTIFDQASKQIIAFNIGKEMASKLIIKTLLQALSRASKPTFLHSDMGSQYTSIAYEGLLKRHLIRHSYSKQGYPYDNGPLEAFHSLLKREFIFQTRFTSFEDLVLRVENYINWYNTERIRINEGHHHHHH", "soluble on expression in E. coli": "not soluble"}
{"sequence": "MSLKAVSEADIQAALKEGGTITVWAWEPTLKQVATDFEKEHPGVKVDLVNAGTNKDQYTALQNAISAKKGVPDVAQIEYYAMGQYALTKQLTDLKSFGADKLSAQFSPGPWNGVKAGSDGVYALPMDSGPMALFYNKKVFDKYDIKVPTTWAEYLDAARDLHKADPKAYITADNGDAGFATSMLWQAGSRPYTVDGTKVKIDFSDQGAKTFTETWQQLIDEKLLASVPAWTDEWYKGLGDGSIATLATGAWMPANLESGAKSASGDWRVAPMPQWKAGDKVSAENGGSALALPELGKNEALAYAFVEYANAGDGVQTRLKNGAFPATTADLQSTRFQDTAFPYFGGQKANKIFAESAADVPDDWSYLPYQVYANSVFNDTVGKAYVSGTTLAEGLESWQEASVKYDEEQGLPSRRKGIITITTDPNSSSVDKLAAALEHHHHHH", "soluble on expression in E. coli": "soluble"}
{"sequence": "MSLKGGEYLETAAKVDVVVVDKTGTLTTGRPELTDVEVIEPAYSQGEVLELAARAETASEHPLADAIIRGAQDRGLSTTLVEAAENITGRGIIANVDGQAVAVGSAELLDHEPDSTRILELNAEGKTAMFVGVNGHAIGIVAVADAVRSDSASAIESLHKAGIQVVMATGDAHRVAQNVASKLGVDEVYSELLPEQKLELVRDLQAAGKTVAMVGDGVNDTPALAAADIGVAMGVAGSPAAIETADIALMADRLPRLAHAVTLAKRTVRTMREGHHHHHH", "soluble on expression in E. coli": "soluble"}
{"sequence": "MSLKIIDFRLRPPAMGFLNARIYTRPDIRNRFTRQLGFEPAPSAEEKSLELMFEEMAAAGIEQGVCVGRNSSVLGSVSNADVAAVAKAYPDKFHPVGSIEAATRKEAMAQMQEILDLGIRIVNLEPGVWATPMHVDDRRLYPLYAFCEDNGIPVIMMTGGNAGPDITYTNPEHIDRVLGDFPDLTVVSSHGNWPWVQEIIHVAFRRPNLYLSPDMYLYNLPGHADFIQAANSFLADRMLFGTAYPMCPLKEYTEWFLTLPIKPDAMEKILHGNAERLLAQAGREGHHHHHH", "soluble on expression in E. coli": "soluble"}
{"sequence": "MSLKIIIAPAKIMKLDRDSFPVQSTPEFLKKTRILEKFLKSRTRDQLETLWHASDKVVEQSLFQLKNMDLDTNLTPAILAFSGIQYQYMAPDLFTQPALDYIQKNLRILSGFYGMLRPFDGICPYRLELNTKMVGFRDYSLYHFWDEDIANSLFKEDQVVINLASKQYMRLVKPYLNSARRMITVDFQELKNDKWKTVGVHAKMARGEMVRFMAEKQIKNPADLRDFHDFDFQFVPEVSSDDHYIFRTDFDFTRHEGHHHHHH", "soluble on expression in E. coli": "soluble"}
{"sequence": "MSLKILGIETSCDETGVAIYDEEKGLIANQLYTQIALHADYGGVVPELASRDHIRKTAPLIKAALEEANLTASDIDGIAYTSGPGLVGALLVGATIARSLAYAWNVPAIGVHHMEGHLLAPMLDDNSPHFPFVALLVSGGHTQLVRVDGVGKYEVIGESIDDAAGEAFDKTAKLLGLDYPGGAALSRLAEKGTPNRFTFPRPMTDRAGLDFSFSGLKTFAANTVNQAIKNEGELIEQTKADIAYAFQDAVVDTLAIKCKRALKETGYKRLVIAGGVSANKKLRETLAHLMQNLGGEVFYPQPQFCTDNGAMIAYTGFLRLKQGQHSDLAIDVKPRWAMAELPAIEGHHHHHH", "soluble on expression in E. coli": "soluble"}
{"sequence": "MSLKIVNITTQVESIELKTPFKTALRQTSHVEFVRVEVECDNGFVGIGEASATKVITGEDIYIILTSIASVEELFLNLTCEEALGALHTKCAIGSSAKASLDIAFVHLLSQEAKKPLYEYFGATDKSALKSDITISLNEADVMLNDAKKAFSNGMDILKIKVGSDILHAIDIVRKIAKELPECDILVDANQAWSFENTVLFIENMLNTPIKLIEQPVEAPNLDGLKKITELSHIPILADEAVFTLKDAKKVIEEKCADMINIKLMKCGGVSKAIEILEFARNREFKCMLGSMLEGPYSINMALHLAFAYRDVIEFVDLDSPLLYKEMPKELDFVFDGCEIKPLEGHHHHHH", "soluble on expression in E. coli": "soluble"}
{"sequence": "MSLKKIGVLGMGYVGIPAAVLFADAPCFEKVLGFQRNSKSSGYKIEMLNRGESPLKGEEPGLEELIGKVVKAGKFECTPDFSRISELDAVTLAIQTPFANPKDLEPDFSALIDGIRNVGKYLKPGMLVVLESTITPGTTEGMAKQILEEESGLKAGEDFALAHAPERVMVGRLLKNIREHDRIVGGIDEASTKRAVELYSPVLTVGQVIPMSATAAEVTKTAENTFRDLQIAAINQLALYCEAMGINVYDVRTGVDSLKGEGITRAVLWPGAGVGGHCLTKDTYHLERGVKIGRGELDYPEGADSIYVLARKVNDFMPAHMYNLTVAALERLGKKMDGSKVAMLGWAFIKDSDDARNTPSEPYRDLCLKAGASVMVHDPYVVNYPGVEISDNLEEVVRNADAIVVLAGHSAYSSLKADWAKKVSAKANPVIIDGRNVIEPDEFIGKGFVYKGIGRGDKNSHKIKEGHHHHHH", "soluble on expression in E. coli": "soluble"}
{"sequence": "MSLKKITMIQTQKKVGRFNIYINNKYAFPVSESILIKYRLHKGQELDENLIEEIKLADDISKGYNAALNYLSYQLRTRKEVEDKLRSLDIHEDYISEIINKLIDLDLINDKNYAESYVRTMMNTSDKGPKVIKLNLSKKGIDDNIAEDALILYTDKLQVEKGVTLAEKLANRYSHDSYRNKQNKIKQSLLTKGFSYDIIDTIIQELDLIFDDEGHHHHHH", "soluble on expression in E. coli": "soluble"}
